{"source": "the PETadex activity labels (doi:10.1016/s0021-9258(17)37371-4)", "proteins": {"B1": {"name": "unnamed (protein)", "chain": "MRPPQCLLHTPSLASPLLLLLLWLLGGGVGAEGREDAELLVTVRGGRLRGIRLKTPGGPVSAFLGIPFAEPPMGPRRFLPPEPKQPWSGVVDATTFQSVCYQYVDTLYPGFEGTEMWNPNRELSEDCLYLNVWTPYPRPTSPTPVLVWIYGGGFYSGASSLDVYDGRFLVQAERTVLVSMNYRVGAFGFLALPGSREAPGNVGLLDQRLALQWVQENVAAFGGDPTSVTLFGESAGAASVGMHLLSPPSRGLFHRAVLQSGAPNGPWATVGMGEARRRATQLAHLVGCPPGGTGGNDTELVACLRTRPAQVLVNHEAHVLPQESVFRFSFVPVVDGDFLSDTPEALINAGDFHGLQVLVGVVKDEGSYFLVYGAPGFSKDNESLISRAEFLAGVRVGVPQVSDLAAEAVVLHYTDWLHPEDPARLREALSDVVGDHNVVCPVAQLAGRLAAQGARVYAYVFEHRASTLSWPLWMGVPHGYEIEFIFGIPLDPSRNYTAEEKIFAQRLMRYWANFARTGDPNEPRDPKAPQWPPYTAGAQQYVSLDLRPLEVRRGLRAQACAFWNRFLPKLLSATDTLDEAERQWKAEFHRWSSYMVHWKNQFDHYSKQDRCSDL"}, "B2": {"name": "unnamed (protein)", "chain": "B1 chain with A317W, Y368F"}, "B3": {"name": "unnamed (protein)", "chain": "B1 chain with Y103A, Y155A, A317W"}, "B4": {"name": "unnamed (protein)", "chain": "B1 chain with W117A, A317W"}}, "note": "Changes are numbered by the printed parent chain.", "data": [{"substrate": "Acetylcholine", "conditions": "pH 8; 27 °C", "units": {"Km": "µM", "kcat": "s⁻¹", "kcat/Km": "M⁻¹ s⁻¹"}, "values": [{"protein": "B1", "Km": 200, "kcat": 5330, "kcat/Km": "2.67e+07"}, {"protein": "B2", "Km": 160, "kcat": 6670, "kcat/Km": "4.17e+07"}, {"protein": "B3", "Km": 70, "kcat": 4170, "kcat/Km": "5.95e+07"}, {"protein": "B4", "Km": 93000, "kcat": 1330, "kcat/Km": 14300}]}]}
